Assay [1] addresses BAFF (Homo sapiens (Human)) (UniProt Q9Y275). Kind of assay: BIAcore 3000, solution-phase equilibrium binding, fit to a quadratic equation. A general note: In SPR one partner is held on a chip, and binding of the other changes the refractive index at the surface.
Assay [2] has the same target. Nature of the assay: BIAcore 3000, solution-phase equilibrium binding; free BAFF read on a BCMA-Fc chip; apparent KD.

Some results are limits rather than exact numbers.

The substance “vBAFF-R(R3-A49):Fc (from UniProt Q96RJ3 2-48) (Fc fusion)” returned a stoichiometry (BAFF:BAFF-R:Fc) (BAFF:BAFF-R:Fc) in assay [1] of 1. For the same substance, the Kd in assay [2] is below 200 µM.
For the substance “vBAFF-R(R3-A72):Fc (from UniProt Q96RJ3 2-71) (Fc fusion)”, the stoichiometry (BAFF:BAFF-R:Fc) (BAFF:BAFF-R:Fc) in assay [1] is 1. In addition, in assay [2], the Kd is below 200 µM.
